Target: the different types of antibodies (different animal originated antibodies of Example 2)
Assay: SPR (Biacore 3000), hybrid on CM-5 chip, antibody in solution

SPR reaction value: < 200 RU
B1: peptide hybrid for protein immobilization represented by formula 3 (H2N-GHWRGWVS-NH(CH2CH2O)nCH2CH2CO-Cys-NH2) (peptide)
peptide: RTYRTYRTYRTYKKKG
modifications: C-terminal NH(CH2CH2O)nCH2CH2CO-Cys-NH2 (PEG linker and cysteine amide)
